Data from the Human Domainome abundance scans (Beltran et al. 2025).
± gives the uncertainty stated by the source.

B1: Membrane-associated guanylate kinase, WW and PDZ domain-containing protein 2, residues 601 to 682; numbered along this chain, Q86UL8 (parent)
chain: AELMTLTIVKGAQGFGFTIADSPTGQRVKQILDIQGCPGLCEGDLIVEINQQNVQNLSHTEVVDILKDCPIGSETSLIIHRG

Variants of: B1
Test: abundance fitness (aPCA) (normalised: wild type 0, dead -1); higher = more abundant; growth selection in yeast, the domain comes from the species named
Settings: Homo sapiens
Work on D68A yielded an abundance fitness of -0.14 ± 0.15. With D68Q the abundance fitness was 0.07 ± 0.11. D68F gave an abundance fitness of -0.304 ± 0.5. Variant D68P has an abundance fitness of -0.233 ± 0.26. D68Y gave an abundance fitness of 0.011 ± 0.24. D68E showed an abundance fitness of -0.022 ± 0.088. Work on D68G yielded an abundance fitness of -0.057 ± 0.1. For D68K, the abundance fitness was 0.005 ± 0.13. Variant D68M has an abundance fitness of 0.027 ± 0.15. For D68H, the abundance fitness was 0.222 ± 0.28. D68I showed an abundance fitness of -0.271 ± 0.18. D68L showed an abundance fitness of -0.138 ± 0.086. Work on D68T yielded an abundance fitness of -0.153 ± 0.095. In the case of D68C, the abundance fitness is reported as -0.101 ± 0.14. D68W gave an abundance fitness of -0.166 ± 0.15. D68V showed an abundance fitness of 0.046 ± 0.082. For D68R, the abundance fitness was -0.136 ± 0.068. C69W showed an abundance fitness of -0.25 ± 0.11. C69D showed an abundance fitness of -0.27 ± 0.13. In the case of C69R, the abundance fitness is reported as -0.08 ± 0.08. With C69T the abundance fitness was 0.085 ± 0.11. For C69Q, the abundance fitness was -0.125 ± 0.13. With C69V the abundance fitness was -0.03 ± 0.065. Work on C69G yielded an abundance fitness of -0.059 ± 0.061. C69Y gave an abundance fitness of -0.174 ± 0.12. In the case of C69E, the abundance fitness is reported as -0.086 ± 0.094. Work on C69N yielded an abundance fitness of -0.195 ± 0.16. For C69M, the abundance fitness was -0.102 ± 0.12. For C69L, the abundance fitness was -0.064 ± 0.11. Variant C69P has an abundance fitness of -0.421 ± 0.22. C69S gave an abundance fitness of 0.177 ± 0.18. C69K showed an abundance fitness of 0.108 ± 0.14. In the case of C69A, the abundance fitness is reported as -0.029 ± 0.07. For C69H, the abundance fitness was -0.329 ± 0.2. For G72H, the abundance fitness was -0.356 ± 0.28. G72A gave an abundance fitness of 0.002 ± 0.061. In the case of G72P, the abundance fitness is reported as 0.022 ± 0.12. In the case of G72T, the abundance fitness is reported as -0.147 ± 0.092. In the case of G72S, the abundance fitness is reported as 0.004 ± 0.083. G72E showed an abundance fitness of -0.018 ± 0.097. With G72F the abundance fitness was -0.353 ± 0.16. G72Q gave an abundance fitness of 0.003 ± 0.17. With G72M the abundance fitness was 0.059 ± 0.089. For G72W, the abundance fitness was -0.243 ± 0.1. In the case of G72N, the abundance fitness is reported as -0.189 ± 0.34. G72R showed an abundance fitness of 0.006 ± 0.065. Work on G72C yielded an abundance fitness of 0.046 ± 0.089. For G72L, the abundance fitness was -0.003 ± 0.079. In the case of G72Y, the abundance fitness is reported as -0.419 ± 0.24. Variant G72K has an abundance fitness of -0.139 ± 0.099. G72D showed an abundance fitness of 0.073 ± 0.089. Variant V63W has an abundance fitness of -0.017 ± 0.11. Variant V63S has an abundance fitness of -0.099 ± 0.13. With V63Q the abundance fitness was -0.087 ± 0.23. For V63R, the abundance fitness was -0.072 ± 0.068. Work on E74A yielded an abundance fitness of -0.185 ± 0.088. With I65F the abundance fitness was -0.088 ± 0.074. In the case of I65D, the abundance fitness is reported as -0.542 ± 0.13. I65R showed an abundance fitness of -0.064 ± 0.034. I65K showed an abundance fitness of -0.069 ± 0.057. I65E gave an abundance fitness of -0.146 ± 0.052. Variant I65A has an abundance fitness of -0.048 ± 0.037. I65H gave an abundance fitness of -0.242 ± 0.093. With I65S the abundance fitness was -0.059 ± 0.04. In the case of I65T, the abundance fitness is reported as -0.038 ± 0.048. In the case of I65M, the abundance fitness is reported as -0.051 ± 0.05. With I65Q the abundance fitness was -0.079 ± 0.047. In the case of I65L, the abundance fitness is reported as -0.072 ± 0.037. For I65P, the abundance fitness was -1.32 ± 0.22. In the case of I65V, the abundance fitness is reported as 0.006 ± 0.037. With I65G the abundance fitness was -0.295 ± 0.038. With I65Y the abundance fitness was -0.047 ± 0.063. Work on I65C yielded an abundance fitness of -0.053 ± 0.063. Work on I65N yielded an abundance fitness of -0.256 ± 0.087. In the case of K67M, the abundance fitness is reported as -0.003 ± 0.1. For K67Y, the abundance fitness was -0.226 ± 0.14. Variant K67N has an abundance fitness of -0.022 ± 0.18. Work on K67W yielded an abundance fitness of -0.224 ± 0.24. K67S showed an abundance fitness of 0.004 ± 0.083. Work on K67G yielded an abundance fitness of 0.052 ± 0.093. For K67I, the abundance fitness was -0.324 ± 0.13. In the case of K67E, the abundance fitness is reported as -0.034 ± 0.17. For K67Q, the abundance fitness was -0.145 ± 0.13. For K67F, the abundance fitness was -0.062 ± 0.31. Variant K67T has an abundance fitness of 0.093 ± 0.11. K67H gave an abundance fitness of -0.23 ± 0.21. With K67R the abundance fitness was 0.034 ± 0.089. For K67V, the abundance fitness was -0.112 ± 0.14. K67A gave an abundance fitness of -0.072 ± 0.083. K67L showed an abundance fitness of -0.083 ± 0.097. Variant K67C has an abundance fitness of -0.117 ± 0.11. For S73K, the abundance fitness was -0.044 ± 0.092. Variant S73L has an abundance fitness of -0.102 ± 0.14. In the case of S73Q, the abundance fitness is reported as -0.098 ± 0.11. For S73R, the abundance fitness was -0.132 ± 0.089. For S73W, the abundance fitness was -0.06 ± 0.091. For S73T, the abundance fitness was -0.095 ± 0.12. Work on S73A yielded an abundance fitness of 0.021 ± 0.065. Variant S73P has an abundance fitness of -0.048 ± 0.1. In the case of S73Y, the abundance fitness is reported as -0.178 ± 0.19. For S73F, the abundance fitness was 0.029 ± 0.19. S73G gave an abundance fitness of 0.095 ± 0.081. S73M showed an abundance fitness of -0.004 ± 0.14. Variant S73I has an abundance fitness of -0.011 ± 0.18. In the case of S73V, the abundance fitness is reported as -0.025 ± 0.067. In the case of S73N, the abundance fitness is reported as -0.359 ± 0.33. S73H gave an abundance fitness of 0.024 ± 0.15. In the case of P70K, the abundance fitness is reported as -0.056 ± 0.24. Work on P70H yielded an abundance fitness of -0.107 ± 0.11. Work on P70R yielded an abundance fitness of -0.003 ± 0.067. In the case of P70L, the abundance fitness is reported as -0.085 ± 0.11. P70F showed an abundance fitness of -0.074 ± 0.12. For P70N, the abundance fitness was -0.089 ± 0.23. P70E gave an abundance fitness of 0.007 ± 0.082. In the case of P70S, the abundance fitness is reported as -0.001 ± 0.12. With P70A the abundance fitness was -0.227 ± 0.099. Variant P70Q has an abundance fitness of -0.084 ± 0.13. P70T gave an abundance fitness of -0.108 ± 0.12. Variant P70W has an abundance fitness of -0.087 ± 0.12. For P70G, the abundance fitness was -0.185 ± 0.076. Variant P70M has an abundance fitness of -0.098 ± 0.12. For P70C, the abundance fitness was -0.315 ± 0.19. Variant P70D has an abundance fitness of 0.077 ± 0.29. With D64T the abundance fitness was -0.126 ± 0.12. Variant D64M has an abundance fitness of -0.308 ± 0.14. Variant D64A has an abundance fitness of -0.191 ± 0.09. Variant D64G has an abundance fitness of -0.059 ± 0.071. In the case of D64H, the abundance fitness is reported as 0.195 ± 0.3. With D64I the abundance fitness was -0.183 ± 0.18. Variant D64Y has an abundance fitness of 0.08 ± 0.19. In the case of D64N, the abundance fitness is reported as -0.067 ± 0.3. D64W gave an abundance fitness of -0.047 ± 0.1. D64C showed an abundance fitness of -0.238 ± 0.18. Variant D64K has an abundance fitness of 0.011 ± 0.16. Variant D64P has an abundance fitness of -0.202 ± 0.2. D64Q showed an abundance fitness of -0.057 ± 0.11. In the case of D64L, the abundance fitness is reported as -0.128 ± 0.087. D64S gave an abundance fitness of 0.013 ± 0.085. D64F showed an abundance fitness of -0.112 ± 0.2. In the case of D64V, the abundance fitness is reported as -0.06 ± 0.063. In the case of L66G, the abundance fitness is reported as -0.673 ± 0.28. With L66Y the abundance fitness was -0.736 ± 0.45. Work on L66C yielded an abundance fitness of -0.398 ± 0.15. With L66V the abundance fitness was -0.235 ± 0.13. L66T gave an abundance fitness of -0.589 ± 0.47. In the case of L66Q, the abundance fitness is reported as -0.557 ± 0.31. L66S showed an abundance fitness of -0.63 ± 0.2. Work on L66R yielded an abundance fitness of -1.11 ± 0.24. L66E showed an abundance fitness of -0.522 ± 0.33. L66A gave an abundance fitness of -0.571 ± 0.12. L66F showed an abundance fitness of 0.053 ± 0.18. Work on L66W yielded an abundance fitness of -0.521 ± 0.12. Variant I71R has an abundance fitness of -0.082 ± 0.076. I71E gave an abundance fitness of -0.033 ± 0.11. For I71V, the abundance fitness was 0.006 ± 0.089. Variant I71P has an abundance fitness of -0.052 ± 0.11. For I71M, the abundance fitness was -0.004 ± 0.099. Variant I71Q has an abundance fitness of -0.161 ± 0.096. I71F showed an abundance fitness of -0.004 ± 0.21. With I71D the abundance fitness was -0.101 ± 0.17. In the case of I71C, the abundance fitness is reported as -0.101 ± 0.23. Variant I71H has an abundance fitness of -0.18 ± 0.23. With I71A the abundance fitness was -0.165 ± 0.1. I71K gave an abundance fitness of -0.117 ± 0.24. I71L showed an abundance fitness of -0.099 ± 0.1. In the case of I71G, the abundance fitness is reported as 0.038 ± 0.074. Variant I71T has an abundance fitness of -0.038 ± 0.15.
